Data published in US20130011412A1 (Genentech, published 2013).

Legend:
[1] = target: T1, recombinant human lymphotoxin-α homotrimer (human LTα3) (human, UniProt P01374 35-205); test: plate ELISA on coated LTα
T1 construct: Coated on plates in the ELISAs; also called rhLTα; lymphotoxin-α3 trimer
T1 sequence (looked up): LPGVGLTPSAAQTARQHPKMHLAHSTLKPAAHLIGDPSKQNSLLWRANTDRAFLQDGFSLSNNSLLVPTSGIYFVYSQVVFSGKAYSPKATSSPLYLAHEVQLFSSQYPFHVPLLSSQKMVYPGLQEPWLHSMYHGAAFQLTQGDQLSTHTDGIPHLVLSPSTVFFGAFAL

[2] = target: T1, recombinant human lymphotoxin-α …; test: plate ELISA, IgG
[3] = target: T1, recombinant human lymphotoxin-α …; test: plate ELISA on coated human LTα
[4] = target: T1, recombinant human lymphotoxin-α …; test: phage competitive ELISA, LTα (0-50 nM) in solution against plate-coated LTα
Description: (§1) For the first round, phage were captured for 2 hours against 2 μg/ml plate-coated LTα at ambient temperature. The second and third rounds of selection were performed at ambient temperature by capturing phage for 30 minutes with 2 nM biotinylated LTα in solution phase, followed by capture on neutravidin-coated plates. The highest affinity clone was identified using a competitive ELISA. Constant concentrations of phage clones (normalized by solid-phase LTα binding OD) were incubated with increasing concentrations of LTα (0-50 nM) in solution before capture on a plate coated with 2 μg/ml LTα.

[5] = target: T1, recombinant human lymphotoxin-α …; test: phage competitive ELISA: rhLTα in solution competes with plate-coated LTα
Description: as §1

[6] = target: T2, murine cell-surface LTαβ complex on transfected SVT2 cells (murine, UniProt P09225 34-202; P41155 1-306); test: FACS on SVT2 cells stably expressing murine LTαβ, reagents conjugated to ALEXA-647
T2 construct: whole, on cells; also called murine LTαβ
T2 sequence (looked up) 1: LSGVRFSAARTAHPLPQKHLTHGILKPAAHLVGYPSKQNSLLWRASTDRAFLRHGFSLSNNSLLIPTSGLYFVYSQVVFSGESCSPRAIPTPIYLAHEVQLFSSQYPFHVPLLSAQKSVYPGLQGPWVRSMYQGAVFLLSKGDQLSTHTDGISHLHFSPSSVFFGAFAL
T2 sequence (looked up) 2: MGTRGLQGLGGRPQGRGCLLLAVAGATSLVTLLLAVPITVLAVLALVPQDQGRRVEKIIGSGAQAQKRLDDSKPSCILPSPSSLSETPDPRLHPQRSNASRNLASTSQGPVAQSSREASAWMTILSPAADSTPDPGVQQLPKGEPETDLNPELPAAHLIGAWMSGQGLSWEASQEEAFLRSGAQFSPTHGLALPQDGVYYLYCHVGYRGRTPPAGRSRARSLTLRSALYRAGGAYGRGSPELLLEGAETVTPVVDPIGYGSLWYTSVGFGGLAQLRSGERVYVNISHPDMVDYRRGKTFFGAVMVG
Description: For murine LTαβ, SVT2 cells were transfected with full-length murine LTα and murine LTαβ (murine LTα sequence GenBank Ref NM_{—}010735; murine LTβ sequence GenBank Ref NM_{—}008518) to generate stable murine LTαβ-expressing cell lines. […] Cells were washed, aspirated, and resuspended in PBS with 2% FBS. Cells were analyzed on a FACSCALIBUR™ (dual laser) using […]™ software, and results analyzed on a FLOWJO™ analyzer (Treestar).

[7] = target: T3, human cell-surface LTαβ complex (LTα complexed with LTβ on the cell surface) (human, UniProt P01374 35-205; Q06643 1-244); test: FACS titration on human Th1 cells, Alexa Fluor 647 conjugates
T3 construct: whole, on cells; also called human LTαβ
T3 sequence (looked up) 1: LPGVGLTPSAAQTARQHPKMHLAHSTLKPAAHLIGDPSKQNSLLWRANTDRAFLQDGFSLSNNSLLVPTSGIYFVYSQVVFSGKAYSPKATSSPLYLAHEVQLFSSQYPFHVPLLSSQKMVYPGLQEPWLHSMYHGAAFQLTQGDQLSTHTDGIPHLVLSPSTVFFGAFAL
T3 sequence (looked up) 2: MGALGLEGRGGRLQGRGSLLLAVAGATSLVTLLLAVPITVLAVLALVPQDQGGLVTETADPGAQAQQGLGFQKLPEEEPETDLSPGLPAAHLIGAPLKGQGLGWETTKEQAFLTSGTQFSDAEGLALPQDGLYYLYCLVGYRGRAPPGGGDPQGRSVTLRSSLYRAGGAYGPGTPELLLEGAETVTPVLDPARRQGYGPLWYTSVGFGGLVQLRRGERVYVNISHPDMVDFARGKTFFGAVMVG
Description: (§2) Cells were washed, aspirated, and re-suspended in PBS with 2% FBS. Cells were analyzed on a FACSCALIBUR™ (dual laser) using […]™ software, and results analyzed on a FLOWJO™ analyzer (Treestar).

[8] = target: T4, human LTα1β2 heterotrimer (R&D Systems) (human, UniProt P01374 35-205; Q06643 49-244, limits assumed); test: ELISA on coated LTα1β2
T4 construct: also called LTαβ
T4 sequence (looked up) 1: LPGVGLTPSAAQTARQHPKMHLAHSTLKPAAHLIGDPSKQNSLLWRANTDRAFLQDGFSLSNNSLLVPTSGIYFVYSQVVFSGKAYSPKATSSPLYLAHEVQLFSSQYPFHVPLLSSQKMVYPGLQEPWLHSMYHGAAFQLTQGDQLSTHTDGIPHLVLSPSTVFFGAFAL
T4 sequence (looked up) 2: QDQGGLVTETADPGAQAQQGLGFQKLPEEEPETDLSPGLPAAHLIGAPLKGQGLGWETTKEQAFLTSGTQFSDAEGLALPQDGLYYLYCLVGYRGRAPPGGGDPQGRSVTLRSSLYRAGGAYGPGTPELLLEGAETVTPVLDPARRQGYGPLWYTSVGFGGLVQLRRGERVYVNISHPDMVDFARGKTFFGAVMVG

[9] = target: T1, recombinant human lymphotoxin-α …; test: cell-based or functional assay
[10] = target: T3, human cell-surface LTαβ complex (LTα …); test: FACS titration on human Th2 cells, Alexa Fluor 647 conjugates
Description: as §2

B1: humanized 3F12.v5 (antibody, IgG1, V domains shown)
VH: EVQLVESGGGLVQPGGSLRLSCAASGYTFSSYWIEWVRQAPGKGLEWVGEISPGSGSTNYNEEFKGRATFSADNSKNTAYLQMNSLRAEDTAVYYCADGYHGYWGQGTLVTVSS
VL: DIQMTQSPSSLSASVGDRVTITCKSSQSLLYSTNQKNFLAWYQQKPGKAPKLLIYWASTRDSGVPSRFSGSGSGTDFTLTISSLQPEDFATYYCQQYYSYPRTFGQGTKVEIKR
notes: Human kappa / IgG1 constant domains (vectors of humanized 2G7 version 5); also called version 5
In the case of B1, the “fold weaker binding than the chimera” value [1] is reported as ~5 fold.

B2: humanized 2C8.v16 (antibody, human IgG1, V domains shown)
VH: EVQLVESGGGLVQPGGSLRLSCAASGYTFTSYVIHWVRQAPGKGLEWVGYNNPYNDGTNYNEKFKGRFTISSDKSKNTAYLQMNSLRAEDTAVYYCSRPTMLPWFAYWGQGTLVTVSS
VL: DIQMTQSPSSLSASVGDRVTITCRASQAVSSAVAWYQQKPGKAPKLLIYSASHRYTGVPSRFSGSGSGTDFTLTISSLQPEDFATYYCQESYSTPWTFGQGTKVEIKR
notes: Heavy chain: v12 variable domain on human IgG1; copies: 2 + 2
With B2 the “fold improvement in binding compared to 2C8.v2” value [2] was 2 fold and the “ELISA IC50 ratio” value [3] was 0.6 ratio.

B3: phage-displayed 2C8 Fab clone A8 (Fab, V domains shown)
VH: EVQLVESGGGLVQPGGSLRLSCAASGYTFTSYVIHWVRQAPGKGLEWVGYNNPYNDGTNYNEKFKGRATISSDKSKNTAYLQMNSLRAEDTAVYYCSRPTMLPWFAYWGQGTLVTVSS
VL: DIQMTQSPSSLSASVGDRVTITCRASQAVSSAVAWYQQKPGKAPKLQIYSASHRYTGVPSRFSGSGSGTDFTLTISSLQPEDFATYYCQESYSTPWTFGQGTKVEIKR
notes: All phagemids kept the wild-type CDR-H3; also called 2C8 clone A8
In the case of B3, the “fold improvement in competition over wild-type 2C8.v2” value [4] is reported as 10 fold and the IC50 [5] is reported as 0.32 nM.

B4: LTbR.muIgG2a (Fc fusion, mouse, UniProt P50284 31-223, looked up)
receptor-Fc fusion chain: QLVPPYRIENQTCWDQDKEYYEPMHDVCCSRCPPGEFVFAVCSRSQDTVCKTCPHNSYNEHWNHLSTCQLCRPCDIVLGFEEVAPCTSDRKAECRCQPGMSCVYLDNECVHCEEERLVLCQPGTEAEVTDEIMDTDVNCVPCKPGHFQNTSSPRARCQPHTRCEIQGLVEAAPGTSYSDTICKNPPEPGAMLL
notes: receptor portion of an Fc fusion; also called LTβ-receptor murine IgG2a; muLTβR.IgG2a
B4: binds [6].

B5: LTbR.huIgG1 (Fc fusion, human, UniProt P36941 31-227, looked up)
receptor-Fc fusion chain: QAVPPYASENQTCRDQEKEYYEPQHRICCSRCPPGTYVSAKCSRIRDTVCATCAENSYNEHWNYLTICQLCRPCDPVMGLEEIAPCTSKRKTQCRCQPGMFCAAWALECTHCELLSDCPPGTEAELKDEVGKGNNHCVPCKAGHFQNTSSPSARCQPHTRCENQGLVEAAPGTAQSDTTCKNPLEPLPPEMSGTMLM
notes: receptor portion of an Fc fusion; also called LTβ-receptor.huIgG1; human LTβR.huIgG1
With B5 the “EC50 (read off the curve)” value [7] was ~0.05 µg/mL.

B6: human TNFRII.huIgG1 (ENBREL®) (Fc fusion, UniProt P20333 23-257, looked up)
chain: LPAQVAFTPYAPEPGSTCRLREYYDQTAQMCCSKCSPGQHAKVFCTKTSDTVCDSCEDSTYTQLWNWVPECLSCGSRCSSDQVETQACTREQNRICTCRPGWYCALSKQEGCRLCAPLRKCRPGFGVARPGTETSDVVCKPCAPGTFSNTTSSTDICRPHQICNVVAIPGNASMDAVCTSTSPTRSMAPGAVHLPQPVSTRSQHTQPTPEPSTAPSTSFLLPMGPSPPAEGSTGD
notes: extracellular domain; also called TNFRII.Fc; etanercept; not shown: Fc portion of a human IgG1
For B6, the binding result [8] was “no binding”, the “IC50, blocking of human LT-induced cytotoxicity” value [9] was 0.83 nM and the binding result [10] was “no binding (tested: 100 ug/ml)”.
